Substrate in the series: NC(=O)CCCC[C@@H](S)CCS
Description: purified protein. The note with it: 100 mM Na phosphate, 100 mM KCl, 8 mM TCEP pH 7.6, room temperature.

B1: Lpd (dihydrolipoamide dehydrogenase; lipoamide dehydrogenase) (Escherichia coli K-12) (protein)
chain: MSTEIKTQVVVLGAGPAGYSAAFRCADLGLETVIVERYNTLGGVCLNVGCIPSKALLHVAKVIEEAKALAEHGIVFGEPKTDIDKIRTWKEKVINQLTGGLAGMAKGRKVKVVNGLGKFTGANTLEVEGENGKTVINFDNAIIAAGSRPIQLPFIPHEDPRIWDSTDALELKEVPERLLVMGGGIIGLEMGTVYHALGSQIDVVEMFDQVIPAADKDIVKVFTKRISKKFNLMLETKVTAVEAKEDGIYVTMEGKKAPAEPQRYDAVLVAIGRVPNGKNLDAGKAGVEVDDRGFIRVDKQLRTNVPHIFAIGDIVGQPMLAHKGVHEGHVAAEVIAGKKHYFDPKVIPSIAYTEPEVAWVGLTEKEAKEKGISYETATFPWAASGRAIASDCADGMTKLIFDKESHRVIGGAIVGTNGGELLGEIGLAIEMGCDAEDIALTIHAHPTLHESVGLAAEVFEGSITDLPNPKAKKK
Take B1: the Km (in general, the substrate concentration at which the rate is half of its maximum) came out at 180 ± 20 µM.

The values are drawn from article doi:10.1101/2021.02.08.430375v1.
